How the values were obtained:
[1] = ATPase assay (modified malachite green method); assay type: biochemical, Strongylocentrotus purpuratus
Procedure: ATPase activity was measured by a modified malachite green method (Kodama et al. (1986) J. Biochem. 99: 1465-1472). ATPase reactions of 50-100 μl, were carried out in a buffer previously used for measuring the ATPase activity of native katanin [20 mM K-HEPES pH 8.0, 25 mM potassium glutamate 2 mM MgCl2, 10% glycerol (v/v), 0.02% Triton X-100 (w/v), 1 mg/ml BSA] (McNally and Vale (1993) Cell, 75: 419-429), except that soybean trypsin inhibitor (SBTI) was replaced by BSA as a carrier protein because SBTI increased background phosphate contamination. An ATP regenerating system, consisting of 0.5-1.0 mM phosphoenol pyruvate and 2 units of pyruvate kinase, was included to minimize the inhibition by ADP observed previously for native katanin (McNally and Vale (1993) Cell, 75: 419-429). Microtubules were prepared from bovine brain tubulin (Hyman et al. (1990) Meth. Enzymol. 196: 303-319; and Williams and Lee (1982) Meth Enzymol. 85B: 376-385). After assembly, microtubules were sedimented (230,000×g; 10 min), resuspended in ATPase buffer lacking BSA, and the polymers were resuspended by repeated passage through a 27 gauge needle. Microtubule concentration was determined by measuring the absorbance at 275 nm in 6 M guanidine HCl by using a molecular mass of 110 kDa and an extinction coefficient of 1.03 ml mg^−1 cm^−1 (Hackney (1988) Proc. Natl. Acad. Sci. USA, 85: 6314-6318). ATPase reactions were carried out at room temperature, and were initiated by addition of katanin.

[2] = tested on: Taxol-stabilized, rhodamine-labeled microtubules; test: Microscope-based microtubule severing assay; assay type: biochemical
Procedure: Microscope-based severing assays were performed using previously published procedures (McNally and Vale (1993) Cell, 75: 419-429), except that microtubules were immobilized by first perfusing flow cells with a bacterially expressed kinesin mutant that binds strongly to microtubules but is unable to hydrolyze ATP (K560, G234A mutant; R. Vale and E. Taylor, unpublished results). Assays were performed in 20 mM Hepes (pH 7.5), 2 mM MgCl2, 1 mM ATP with an oxygen scavenger system consisting of glucose oxidase (220 μg/ml), catalase (36 μg/ml), glucose (22.5 mM), and 2-mercaptoethanol (71.5 mM). Images were captured using a cooled, slow-scan CCD (Photometerics) and processed using Adobe Photoshop.

microtubules = test: DAPI fluorescence microtubule disassembly (severing) assay; assay type: biochemical, bovine; details: 2 μM microtubules, 0.2 μM protein
Procedure: ATPase activity was measured by a modified malachite green method (Kodama et al. (1986) J. Biochem. 99: 1465-1472). ATPase reactions of 50-100 μl, were carried out in a buffer previously used for measuring the ATPase activity of native katanin [20 mM K-HEPES pH 8.0, 25 mM potassium glutamate 2 mM MgCl2, 10% glycerol (v/v), 0.02% Triton X-100 (w/v), 1 mg/ml BSA] (McNally and Vale (1993) Cell, 75: 419-429), except that soybean trypsin inhibitor (SBTI) was replaced by BSA as a carrier protein because SBTI increased background phosphate contamination. […] Microtubule concentration was determined by measuring the absorbance at 275 nm in 6 M guanidine HCl by using a molecular mass of 110 kDa and an extinction coefficient of 1.03 ml mg^−1 cm^−1 (Hackney (1988) Proc. Natl. Acad. Sci. USA, 85: 6314-6318). […]
DAPI severing assays were performed using conditions where the change in fluorescence intensity was linear with the amount of tubulin polymer added (Heusele et al. (1987) Eur. J. Biochem. 165: 613-620). […] The reaction volume was 80 μL, and fluorescence intensity was measured by exciting at 370 nm, and measuring the emission at 450 nm using a model 8100 fluorimeter (SLM Instruments) in photon counting mode.

[3] = literature values for comparison; cited from earlier work

B1: p80: baculovirus-expressed His-tagged S. purpuratus katanin p80 subunit (SEQ ID NO:2), contains WD40 repeats (protein, listed as Strongylocentrotus purpuratus)
chain: MATKRAWKLQELVAHSSNVNCLALGPMSGRVMVTGGEDKKVNLWAVGKQNCIISLSGHTSPVDSVKFNSSEELVVAGSQSGTMKIYDLEPAKIVRTLTGHRNSIRCMDFHPFGEFVASGSTDTNVKLWDVRRKGCIYTYKGHSDQVNMIKFSPDGKWLVTASEDTTIKLWDLTMGKLFQEFKNHTGGVTGIEFHPNEFLLASGSSDRTVQFWDLETFQLVSSTSPGASAVRSISFHPDGSYLFCSSQDMLHAFGWEPIRCFDTFSVFWGKVADTVIASTQLIGASFNATNVSVYVADLSRMSTTGIAQEPQSQPSKTPSGGAEEVPSKPLTASGRKNFVRERPHTTSSKQRQPDVKSEPERQSPTQDEGVKDDDATDIKDPDSYAKIFSPKTRVDHSPERNAQPFPAPLDVPGAQEPEPFKHPPKPAAAAAVAPVSRAPAPSASDWQPAQANPAPNRVPAATKPVPAQEVAPSRKPDPISTIIPSDRNKPANLDMDAFLPPAHAQQAPRVNAPASRKQSDSERIEGLRKGHDSMCQVLSSRHRNLDVVRAIWTAGDAKTSVESVVNMKDQAILVDILNIMLLKKSLWNLDMCVVVLPRLKELLSSKYENYVHTSCACLKLILKNFTSLFNQNIKCPPSGIDITREERYNKCSKCYSYLIATRGYVEEKQHVSGKLGSSFRELHLLLDQLE
modifications: His tag; katanin p80 subunit
ATPase activity (in words) [1]: no detectable ATPase activity | microtubule severing (in words) ([2]; concentrations 5-fold higher than those used for p60 (0.5 μM)): unable to sever microtubules | rate of microtubule disassembly, DAPI fluorescence decrease (in words) (microtubules): did not cause a change in fluorescence

B2: Katanin: microtubule-severing heterodimer of 60 kDa and 80 kDa subunits; values match recombinant p60/p80 (protein)
chain 1: HHHHHHMSVDEICENTKMGREYALLGNYETSLVYYQGVLQQIQKLLTSVHEPQRKHQWQTIRQELSQEYEHVKNITKTLNGFKSEPAAPEPAPNHGRAAPFSHHQHAAKPAAAEPARDPDVWPPPTPVDHRPSPPYQRAARKDPPRRSEPSKPANRAPGNDRGGRGPSDRRGDARSGGGGRGGARGSDKDKNRGGKSDKDKKAPSGEEGDEKKFDPAGYDKDLVENLERDIVQRNPNVHWADIAGLTEAKRLLEEAVVLPLWMPDYFKGIRRPWKGVLMVGPPGTGKTMLAKAVATECGTTFFNVSSASLTSKYHGESEKLVRLLFEMARFYAPSTIFIDEIDSICSKRGTGSEHEASRRVKSELLIQMDGVSGPSAGEESSKMVMVLAATNFPWDIDEALRRRLEKRIYIPLPEIDGREQLLRINLKEVPLADDIDLKSIAEKMDGYSGADITNVCRDASMMAMRRRIQGLRPEEIRHIPKEELNQPSTPADFLLALQKVSKSVGKEDLVKYMAWMEEFGSV
chain 2: HHHHHHMATKRAWKLQELVAHSSNVNCLALGPMSGRVMVTGGEDKKVNLWAVGKQNCIISLSGHTSPVDSVKFNSSEELVVAGSQSGTMKIYDLEPAKIVRTLTGHRNSIRCMDFHPFGEFVASGSTDTNVKLWDVRRKGCIYTYKGHSDQVNMIKFSPDGKWLVTASEDTTIKLWDLTMGKLFQEFKNHTGGVTGIEFHPNEFLLASGSSDRTVQFWDLETFQLVSSTSPGASAVRSISFHPDGSYLFCSSQDMLHAFGWEPIRCFDTFSVFWGKVADTVIASTQLIGASFNATNVSVYVADLSRMSTTGIAQEPQSQPSKTPSGGAEEVPSKPLTASGRKNFVRERPHTTSSKQRQPDVKSEPERQSPTQDEGVKDDDATDIKDPDSYAKIFSPKTRVDHSPERNAQPFPAPLDVPGAQEPEPFKHPPKPAAAAAVAPVSRAPAPSASDWQPAQANPAPNRVPAATKPVPAQEVAPSRKPDPISTIIPSDRNKPANLDMDAFLPPAHAQQAPRVNAPASRKQSDSERIEGLRKGHDSMCQVLSSRHRNLDVVRAIWTAGDAKTSVESVVNMKDQAILVDILNIMLLKKSLWNLDMCVVVLPRLKELLSSKYENYVHTSCACLKLILKNFTSLFNQNIKCPPSGIDITREERYNKCSKCYSYLIATRGYVEEKQHVSGKLGSSFRELHLLLDQLE
basal ATPase activity [1]: 0.3 ATP/katanin/sec | maximal microtubule-stimulated ATPase rate [1]: 3 ATP/katanin/sec

B3: NSF: recombinant NSF, AAA ATPase cited for comparison (protein, UniProt P46459 1-744, looked up)
Vesicle-fusing ATPase: MAGRSMQAARCPTDELSLTNCAVVNEKDFQSGQHVIVRTSPNHRYTFTLKTHPSVVPGSIAFSLPQRKWAGLSIGQEIEVSLYTFDKAKQCIGTMTIEIDFLQKKSIDSNPYDTDKMAAEFIQQFNNQAFSVGQQLVFSFNEKLFGLLVKDIEAMDPSILKGEPATGKRQKIEVGLVVGNSQVAFEKAENSSLNLIGKAKTKENRQSIINPDWNFEKMGIGGLDKEFSDIFRRAFASRVFPPEIVEQMGCKHVKGILLYGPPGCGKTLLARQIGKMLNAREPKVVNGPEILNKYVGESEANIRKLFADAEEEQRRLGANSGLHIIIFDEIDAICKQRGSMAGSTGVHDTVVNQLLSKIDGVEQLNNILVIGMTNRPDLIDEALLRPGRLEVKMEIGLPDEKGRLQILHIHTARMRGHQLLSADVDIKELAVETKNFSGAELEGLVRAAQSTAMNRHIKASTKVEVDMEKAESLQVTRGDFLASLENDIKPAFGTNQEDYASYIMNGIIKWGDPVTRVLDDGELLVQQTKNSDRTPLVSVLLEGPPHSGKTALAAKIAEESNFPFIKICSPDKMIGFSETAKCQAMKKIFDDAYKSQLSCVVVDDIERLLDYVPIGPRFSNLVLQALLVLLKKAPPQGRKLLIIGTTSRKDVLQEMEMLNAFSTTIHVPNIATGEQLLEALELLGNFKDKERTTIAQQVKGKKVWIGIKKLLMLIEMSLQMDPEYRVRKFLALLREEGASPLDFD
ATPase activity of other AAA family members [3]: 0.08 ATP/sec

B4: p60: baculovirus-expressed His-tagged S. purpuratus katanin p60 subunit (SEQ ID NO:1), AAA ATPase (protein, listed as Strongylocentrotus purpuratus)
chain: MSVDEICENTKMGREYALLGNYETSLVYYQGVLQQIQKLLTSVHEPQRKHQWQTIRQELSQEYEHVKNITKTLNGFKSEPAAPEPAPNHGRAAPFSHHQHAAKPAAAEPARDPDVWPPPTPVDHRPSPPYQRAARKDPPRRSEPSKPANRAPGNDRGGRGPSDRRGDARSGGGGRGGARGSDKDKNRGGKSDKDKKAPSGEEGDEKKFDPAGYDKDLVENLERDIVQRNPNVHWADIAGLTEAKRLLEEAVVLPLWMPDYFKGIRRPWKGVLMVGPPGTGKTMLAKAVATECGTTFFNVSSASLTSKYHGESEKLVRLLFEMARFYAPSTIFIDEIDSICSKRGTGSEHEASRRVKSELLIQMDGVSGPSAGEESSKMVMVLAATNFPWDIDEALRRRLEKRIYIPLPEIDGREQLLRINLKEVPLADDIDLKSIAEKMDGYSGADITNVCRDASMMAMRRRIQGLRPEEIRHIPKEELNQPSTPADFLLALQKVSKSVGKEDLVKYMAWMEEFGSV
modifications: His tag; katanin p60 subunit
microtubule concentration at peak ATP turnover stimulation ([1]; decreases at higher microtubule concentrations): ~2 μM tubulin | time until microtubules were completely disassembled ([2]; 0.1 μM protein, 1 mM ATP): 5 min | rate of microtubule disassembly, DAPI fluorescence decrease (in words) (microtubules): half as active as p60/p80

Source: patent publication US6872537B1, “Assays for the detection of microtubule depolymerization inhibitors” (Regents of the University of California, priority 1998, dated 2005)
